Assay [1] has as its target T1, Siglec-15-Fc (R&D systems) (UniProt Q6ZMC9 20-263, limits assumed).
T1 construct: Bought reagent; not shown: Fc part of the bought fusion; not described
T1 sequence (looked up): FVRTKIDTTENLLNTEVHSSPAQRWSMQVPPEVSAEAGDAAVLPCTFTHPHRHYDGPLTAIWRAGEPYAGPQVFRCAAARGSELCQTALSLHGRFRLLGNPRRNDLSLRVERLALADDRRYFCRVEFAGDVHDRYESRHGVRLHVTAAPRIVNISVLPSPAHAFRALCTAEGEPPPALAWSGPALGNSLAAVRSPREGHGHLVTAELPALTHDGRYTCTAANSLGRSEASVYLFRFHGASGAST
The assay is described as follows: ELISA, coated Siglec-15-Fc 1 µg/ml, single antibody concentration, Abs 450 nm, n=3. The method, then:
(§1) Specificity towards Siglec-5, Siglec-7, Siglec-8, Siglec-15 and Siglec-9 was assayed in enzyme-linked immunosorbent assay (ELISA) using 96 well half-area ELISA plates (Corning). Siglec-5-Fc (R&D systems), Siglec-7-Fc (in-house production, Siglec-7-Fc protein used had the following amino acid sequence:
(§2) (SEQ ID NO: 59)) […] […] […] […] […] […] […] […] […] […] […] […], Siglec-8-Fc (R&D systems), Siglec-15- Fc (R&D systems) and Siglec-9-Fc (in-house production, SEQ ID NO: 11) were coated at 1 μg/ml in 50 mM carbonate-bicarbonate buffer pH 9.6 for 15-20 hours at 4° C.
(§3) Antigens were washed away (Tecan Hydrospeed) and plates were blocked with 5% skimmed milk in phosphate-buffered saline (PBS). After washing the plates, antibodies were added at 5 μg/ml (33 nM) in 0.5% milk PBS in triplicates. Plates with antibodies were incubated for 1 hour at room temperature. Plates were washed and bound antibodies were detected by horseradish peroxidase (HRP)-labeled polyclonal anti-rabbit IgG antibody (Biolegend) or anti-human Fab fragment for mAbA (Sigma Aldrich). 3,3′,5,5′-Tetramethylbenzidine (TMB; Sigma Aldrich) development was stopped by addition of sulfuric acid and absorbance was detected at 450 nm (Tecan, CM […] MONO 200).
(In general: In an ELISA, binding on a coated surface is turned into a signal by an enzyme label.)

Assay [2] deals with T2, Siglec-7-Fc (in-house production).
T2 construct: The entry holds the Siglec-7 part and the Fc together; also called Siglec-7-Fc protein
T2 sequence (chain, as listed by the source limits assumed): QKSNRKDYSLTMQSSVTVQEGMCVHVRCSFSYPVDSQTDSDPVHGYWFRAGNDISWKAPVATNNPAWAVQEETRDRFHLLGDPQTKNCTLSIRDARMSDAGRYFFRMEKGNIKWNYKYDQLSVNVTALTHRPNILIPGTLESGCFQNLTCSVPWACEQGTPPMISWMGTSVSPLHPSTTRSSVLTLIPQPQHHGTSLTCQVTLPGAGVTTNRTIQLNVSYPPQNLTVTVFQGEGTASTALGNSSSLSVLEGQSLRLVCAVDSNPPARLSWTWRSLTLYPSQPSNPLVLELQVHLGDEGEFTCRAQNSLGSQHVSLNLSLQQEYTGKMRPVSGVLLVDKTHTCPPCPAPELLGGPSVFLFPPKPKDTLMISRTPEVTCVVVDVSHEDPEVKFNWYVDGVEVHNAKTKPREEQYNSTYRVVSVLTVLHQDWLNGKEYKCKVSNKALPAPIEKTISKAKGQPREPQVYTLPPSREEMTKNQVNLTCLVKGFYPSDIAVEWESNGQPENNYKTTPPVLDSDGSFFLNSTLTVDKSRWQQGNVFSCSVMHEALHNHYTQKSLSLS
Description: ELISA, coated Siglec-7-Fc 1 µg/ml, single antibody concentration, anti-human Fab detection, Abs 450 nm, n=3. The procedure: as §1, §2, §3

B1: monoclonal antibody 224B1 (rabbit) (antibody, V domains shown)
VH: QSVEESGGRLVTPETPLTLTCTASGFSLSSYYMSWVRQAPGKGLEWIGYIWTDGSAHYATWTKGRFTISKTSSTTVDLKITSPTTEDTATYFCVRANSGSHTYIEKFNLWGPGTLVTVSS
VL: DVVMTQTPASVEATVGGSVTIKCQASPSINDELSWYQQKPGQRPTLLIYEASALESGVPSRFKGSGSGTEFTLTIGDLECADAATYYCQCTYGSRSDISYGNTFGGGTEVVVKG
On to B1, for which the binding result in assay [1] is recorded as “no binding (tested: 5 µg/ml)”.

B2: comparative monoclonal antibody mAbA (WO 2017/153433), mouse-human chimera (antibody, human IgG1, kappa, V domains shown)
VH: QVQLQQPGAELVKPGSPVKLSCKASYFTFTSYWMHWVRQRPGQGLEWIGEINPSNGHTNYNEKFESKATLTVDRSSSTAYMQLSSLTSEDSAVFYCANGVESYDFDDALDYWGQGTSVTVSS
VL: DIQMTQTTSSLSASLGDRVTISCRASQDINNYLNWYQQKPDGTIKLLIYYTSRLHSGVPSRFSGSGSGTDYSLTINNLEQEDIATYFCQQGNTLPFTFGGGTKLEIKR
On to B2, for which the binding result in assay [2] is reported as “no binding (tested: 5 µg/ml)”.
